Where a chain is given by its changes, count along the chain named. Numbers in names are those of the source.
T1: human IgA (Sigma, Cat. No. I2636) (human)
T1 chain: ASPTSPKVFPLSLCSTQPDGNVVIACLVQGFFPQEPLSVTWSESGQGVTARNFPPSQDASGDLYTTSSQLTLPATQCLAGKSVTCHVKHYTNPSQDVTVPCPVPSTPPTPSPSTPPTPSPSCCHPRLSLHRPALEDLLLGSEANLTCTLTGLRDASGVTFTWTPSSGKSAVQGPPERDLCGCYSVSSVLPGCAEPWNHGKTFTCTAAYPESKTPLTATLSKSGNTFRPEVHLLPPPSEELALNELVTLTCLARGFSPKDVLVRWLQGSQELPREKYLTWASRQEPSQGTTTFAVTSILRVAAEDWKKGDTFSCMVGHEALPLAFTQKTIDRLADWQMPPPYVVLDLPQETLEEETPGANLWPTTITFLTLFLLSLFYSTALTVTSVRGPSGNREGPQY

B1: 5.396.1 (recombinant) (antibody, human IgG2, kappa, V domains shown)
VH: QVQLQQWGAGLLKPSETLSLTCAVYGGSFSGYYWSWIRQPPGKGLEWIGEIHHSGSTNYNPSLKSRVTISVDTSKNQFSLKLSSVTAADTAVYYCARDNWNDSFYYYYGMDVWGQGTTVTVSS
VL: DIQMTQSPSSLSASVGDRVTITCRASQGISNHLAWFQQKPGKAPKSLIYAASSLQSGVPSKFSGSGSGTDFTLTISSLQPEDFATYYCQQYNRHPFTFGPGTKVDIKR
notes: Fully human IgG2 kappa, expressed in 293 Freestyle cells; also called recombinant 5.396.1
B2: 5.396.1 Hc-S103N Lc-K61R (antibody, human IgG2, kappa, V domains shown)
VH: B1 VH with S103N
VL: B1 VL with K61R
notes: Human IgG2 kappa; leader omitted; also called 5.396.1 (S103N/K61R); 5.396.1 S103N/K61R
B3: 6.605.1 (recombinant) (antibody, human IgG2, kappa, V domains shown)
VH: QVHLVQSGAEVKMPGASVKVSCKASGYTFTSYGISWVRQAPGQGLEWMGWISAYNGNTNYAQKLQGRITMTTDTSTSTAYMDLRSLRSDDTAVYYCARDGDYYDPFDYWGQGTLVTVSS
VL: DIQMTQSPSSLSASVGDRVTITCRTSQSISNWLNWYQQKPGKAPKLLIYGASTLKSGVPSRFSGSESGTDFTLTISSLQPEDFATYYCQQSYSTPPTFGQGTKVEIKR
notes: Human IgG2 kappa; leader omitted; also called recombinant 6.605.1
B4: 6.605.1 Hc-H3Q, M13K, D82E Lc-T25A, T53S (antibody, human IgG2, kappa, V domains shown)
VH: B3 VH with H3Q, M13K, D82E
VL: B3 VL with T25A, T53S
notes: Human IgG2 kappa; leader omitted; also called 6.605.1 (H3Q, M13K, D82E-T25A, T53S); 6.605.1 QKE/AS

Assays:
[1] = molecular target: T2, cynomolgus monkey IgE (in cynomolgus serum, Harlan Sera-Lab Ltd) (cynomolgus monkey); assay: capture ELISA, Test 1, Cyno 1
T2 construct: Serum was the source of IgE; eight serum samples; also called cynomolgus IgE; Cyno 1 to Cyno 8 serum samples
Protocol: (§1) Wells were washed once with 150 μL/well wash buffer (0.05% Tween-20, Sigma, Cat. No. P7949/TBS) then blocked with 150 μL/well 1% BSA (Sigma, Cat. No. A7030) in TBS for 2 hours at room temperature. Wells were washed twice with 150 μL wash buffer. 50 μL human (in-house donors) or cynomolgus serum (Harlan Sera-Lab Ltd, Loughborough) was added from neat to at least 1:16 dilution in 1% BSA/0.05% Tween-20/TBS diluent buffer. […] Wells were incubated for 2 hours at 25° C. before washing (3×150 μL wash buffer). […] Wells were incubated for 1 hour at 25° C. then washed (3×150 μL wash buffer). Streptavidin-HRP (Amersham Bioscience, Cat. No. RPN 1231) diluted 1:1000 in diluent buffer was added to all wells and incubated for 45 minutes at room temperature. Wells were washed (3×150 […] wash buffer). 50 μL OPD (Dako, Cat. No. S2045) was added to all wells and the color allowed to develop for 10 minutes before stopping the reaction with 50 μl 0.6M H₂SO₄ and the absorbance measured at 490 nm.

[2] = molecular target: T2, cynomolgus monkey IgE (in cynomolgus …); assay: capture ELISA, Test 1, Cyno 2
Protocol: as §1

[3] = molecular target: T2, cynomolgus monkey IgE (in cynomolgus …); assay: capture ELISA, Test 1, Cyno 4
Protocol: as §1

[4] = molecular target: T2, cynomolgus monkey IgE (in cynomolgus …); assay: capture ELISA, Test 1, Cyno 5
Protocol: as §1

[5] = molecular target: T2, cynomolgus monkey IgE (in cynomolgus …); assay: capture ELISA, Test 1, Cyno 6
Protocol: as §1

[6] = molecular target: T2, cynomolgus monkey IgE (in cynomolgus …); assay: capture ELISA, Test 1, Cyno 7
Protocol: as §1

[7] = molecular target: T1, human IgA (Sigma, Cat. No. I2636); assay: ELISA on coated immunoglobulin
Protocol: (§2) Wells were washed 3× with 150 μL wash buffer (0.05% Tween-20 (Sigma, Cat. No. P7949)/PBS) then blocked with 150 μL/well blocking buffer (2.5% BSA (Sigma, Cat. No. A7030)/PBS) for 2 hours at room temperature. Wells were washed 3× with 150 μL wash buffer/well. […] Antibodies were diluted in diluent buffer (PBS/1% BSA/0.05% Tween-20) and this was added to blank control wells (duplicate wells for each secondary antibody used). Antibodies were incubated for 2 hours at room temperature. Wells were washed 3× with 150 μL wash buffer/well. Binding of control antibodies to immunoglobulin was detected with anti-mouse IgG-HRP conjugate (Sigma, Cat. No. A4416) diluted 1:8000 in diluent buffer. 50 μL/well was added to control antibody and blank wells. Wells were incubated for 1 hour at room temperature, then washed 3× with 150 μL wash buffer/well. 50 μl OPD (Dako, Cat. No. […] Wells were incubated for 1 hour at room temperature then washed 3× with 150 μL wash buffer/well. Streptavidin-HRP (Amersham Bioscience, Cat. No. RPN 1231) diluted 1:2000 in diluent buffer was added to all wells and incubated for 45 minutes at room temperature. Wells were washed (3×150 μL wash buffer).

[8] = molecular target: T3, human IgG1 (Biodesign, Cat. No. A50183H) (human); assay: ELISA on coated immunoglobulin
T3 construct: Bought immunoglobulin coated on the plate
Protocol: as §2

[9] = molecular target: T4, human IgG3 (Biodesign, Cat. No. A50186H) (human); assay: ELISA on coated immunoglobulin
T4 construct: Bought immunoglobulin coated on the plate
Protocol: as §2

[10] = molecular target: T2, cynomolgus monkey IgE (in cynomolgus …); assay: capture ELISA, Test 1, Cyno 3
Protocol: as §1

[11] = molecular target: T2, cynomolgus monkey IgE (in cynomolgus …); assay: capture ELISA, Test 2, Cyno 1
Protocol: as §1

[12] = molecular target: T2, cynomolgus monkey IgE (in cynomolgus …); assay: capture ELISA, Test 2, Cyno 2
Protocol: as §1

[13] = molecular target: T2, cynomolgus monkey IgE (in cynomolgus …); assay: capture ELISA, Test 2, Cyno 3
Protocol: as §1

[14] = molecular target: T2, cynomolgus monkey IgE (in cynomolgus …); assay: capture ELISA, Test 2, Cyno 4
Protocol: as §1

[15] = molecular target: T2, cynomolgus monkey IgE (in cynomolgus …); assay: capture ELISA, Test 2, Cyno 5
Protocol: as §1

[16] = molecular target: T2, cynomolgus monkey IgE (in cynomolgus …); assay: capture ELISA, Test 2, Cyno 6
Protocol: as §1

[17] = molecular target: T2, cynomolgus monkey IgE (in cynomolgus …); assay: capture ELISA, Test 2, Cyno 7
Protocol: as §1

[18] = molecular target: T2, cynomolgus monkey IgE (in cynomolgus …); assay: capture ELISA, Test 2, Cyno 8
Protocol: as §1

Row | Binder | IgE concentration detected [1] [ng/mL] | IgE concentration detected [2] [ng/mL] | IgE concentration detected [3] [ng/mL] | IgE concentration detected [4] [ng/mL] | IgE concentration detected [5] [ng/mL] | IgE concentration detected [6] [ng/mL] | A290 nm [7] [A290 nm] | A290 nm [8] [A290 nm] | A290 nm [9] [A290 nm] | IgE concentration detected [10] [ng/mL] | IgE concentration detected [11] [ng/mL] | IgE concentration detected [12] [ng/mL] | IgE concentration detected [13] [ng/mL] | IgE concentration detected [14] [ng/mL] | IgE concentration detected [15] [ng/mL] | IgE concentration detected [16] [ng/mL] | IgE concentration detected [17] [ng/mL] | IgE concentration detected [18] [ng/mL]
1 | B1 | 30 | 0 | 0 | 37 | 3 | 0 | 0.04 | 0.07 | 0.05 |  |  |  |  |  |  |  |  | 
2 | B2 | 41 | 0 | 0 | 57 | 0 | 0 | 0.04 | 0.08 | 0.05 | 39 | 57 | 39 | 53 | 0 | 102 | 0 | 0 | 0
3 | B3 | 120 | 91 | 0 | 140 | 0 | 0 | 0.04 | 0.07 | 0.05 | 107 |  |  |  |  |  |  |  | 
4 | B4 | 133 | 103 | 0 | 173 |  | 0 | 0.04 | 0.07 | 0.04 | 122 |  |  |  |  |  |  |  | 

— US20090117124A1 (Pfizer, published 2009)
